Measurements reported in patent publication US10391180B2, “Self-assembling complex for targeting chemical agents to cells” (CEDARS-SINAI MEDICAL CENTER, priority 2007, dated 2019).

Key:
breast cancer cells = test: HerDox trafficking, immunofluorescence against HerPBK10 in fixed cells; format: cell-based
Protocol: FIG. 15 illustrates HerDox trafficking in breast cancer cells. Cells incubated with HerDox at 37° C. were fixed at the indicated time points and processed for immunofluorescence using an antibody against HerPBK10. Images were captured using confocal microscopy under fluorescence and brightfield. Green, HerPBK10; Red, Dox. n, nucleus Bar, ˜8 microns.
To determine whether Dox remains attached to HerPBK10 during uptake, the inventors used immuno-fluorescence against HerPBK10. […] In fixed cells, nucleolar accumulation was not detectable as in the live cells (FIG. 14 (B)).

MDA-MB-435 cells = test: Intracellular translocation in live cells, Dox fluorescence microscopy; format: cell-based; settings: for intracellular location of Dox fluorescence: 0.5 uM
Protocol: FIGS. 14 (A)-(B) illustrates comparison of HerDox and Dox intracellular translocation and targets in live cells. MDA-MB-435 cells were incubated with HerDox or free Dox (0.5 uM) at 37° C. Live (unfixed) cells were imaged by brightfield and fluorescence as depicted in […], or DIC and confocal fluorescence, as depicted in FIG. 14 (B), microscopy. Dox is indicated by red or magenta pseudocolor.
To understand the mechanism of HerDox mediated tumor cell death, the inventors examined HER2+ cells microscopically after treatment with HerDox, using Dox fluorescence to detect intracellular location. […] These dynamics, in addition to earlier targeting results, support a receptor-mediated HerDox entry mechanism. Even the intranuclear pattern of Dox when delivered by HerPBK10 differs from free Dox.

[1] = Stability in mouse whole blood; format: in vitro ADME; settings: 0.12 mg/mL Dox conc, 37° C. up to 1 h, 0.5 mM EDTA
Protocol: FIG. 13 illustrates stability in mouse whole blood. Freshly collected whole blood was processed by ultrafiltration through 10K MW cutoff membranes after up to 1 h incubation with HerDox or Dox at 37° C. As 0.5 mM EDTA was used as an anticoagulant, HerDox in EDTA alone (-blood) was processed in parallel. Bars represent fluorescence of retained (retentates) or released (filtrates) Dox as a percentage of the total fluorescence of each sample. Scale of Y-axis is adjusted to show presence of filtrate samples. N=3 per treatment.
To assess the feasibility of measuring in vivo stability, the inventors incubated HerDox (at 0.12 mg/mL final Dox conc) or free Dox at equivalent concentration in freshly collected whole blood from mice and incubated the mixtures at 37° C. up to 1 h. As the anticoagulant, 0.5 mM EDTA, was present in the blood collection, parallel samples were incubated at 37° C. in EDTA alone. Samples representing input HerDox (before incubation in blood) were incubated at 37° C. in HEPES-buffered saline. All samples were then centrifuged through 10K MW cutoff filters and Dox fluorescence measured in retentates and filtrates (SpectraMax M2 from Molecular Devices). […] Likewise, there is no appreciable loss of Dox from HerDox retentates from samples incubated in blood compared to those incubated in saline or EDTA alone (FIG. 13).

B1: HerDox: non-covalent complex of HerPBK10, a small double-stranded nucleic acid and intercalated Dox (conjugate)
chain: LPPRLKEMKSQESAAGSKLVLRCETSSEYSSLRFKWFKNGNELNRKNKPQNIKIQKKPGKSELRINKASLADSGEYMCKVISKLGNDSASANITIVESNEIITGMPASTEGAYVSSESPIRISVSTEGANTSSSTSTSTTGTSHLVKCAEKEKTFCVNGGECFMVKDLSNPSRYLCKCQPGFTGARCTENVPMKVQNQEKAEELYMRRAAMYEEGPPPSYESVVSAAPVAAALGSPFDAPLDPPFVPPRYLRPTGGRNSIRYSELAPLFDTTRVYLVDNKSTDVASLNYQNDHSNFLTTVIQNNDYSPGEASTQTINLDDRSHWGGDLKTILHTNMPNVNEFMFTNKFKARVMVSRLPTKDNQVELKYEWVEFTLPEGNYSETMTIDLMNNAIVEHYLKVGRQNGVLESDIGVKFDTRNFRLGFDPVTGLVMPGVYTNEAFHPDIILLPGCGVDFTHSRLSNLLGIRKRQPFQEGFRITYDDLEGGNIPALLDVDAYQASLKDDTEQGGGGAGGSNSSGSGAEENSNAAAAAMQPVEDMNDHAIRGDTFATRAEEKRAEAEAAAEAAAPAAQPEVEKPQKKPVIKPLTEDSKKRSYNLISNDSTFTQYRSWYLAYNYGDPQTGIRSWTLLCTPDVTCGSEQVYWSLPDMMQDPVTFRSTRQISNFPVVGAELLPVHSKSFYNDQAVYSQLIRQFTSLTHVFNRFPENQILARPPAPTITTVSENVPALTDHGTLPLRNSIGGVQRVTITDARRRTCPYVYKALGIVSPRVLSSRTFKKKKKKKKKK
modifications: left off: small tags and cut ends
notes: non-covalent complex of HerPBK10, a small double-stranded nucleic acid and intercalated Dox
Question: Which “location of Dox and HerPBK10 during uptake” value (breast cancer cells; 30 and 60 min) does the source give for B1 here?
Answer: Its value is “increasing levels of Dox accumulate in the nucleus while the majority of HerPBK10 remains in the cytoplasm”.

Question: What about the “integrity of HerDox during uptake (colocalization of HerPBK10 and Dox)” value (breast cancer cells; 15 min of uptake) of the same molecule?
Answer: The value was “still intact”.

Question: What about the “intracellular location of Dox fluorescence” value (MDA-MB-435 cells; 0 min of uptake) of the same molecule?
Answer: The value was “mostly at the cell periphery”.

Question: What about the “intracellular location of Dox fluorescence” value (MDA-MB-435 cells; 60 min) of the same molecule?
Answer: Its value is “accumulated in the nucleus”.

Question: What about the “intranuclear pattern of Dox” value (MDA-MB-435 cells; live cells, confocal) of the same molecule?
Answer: Its value is “preferentially accumulates in nucleolar structures”.

Question: And the “loss of Dox from the conjugate in whole blood” value [1]?
Answer: The value was “no detectable loss of Dox”.
